Values of other authors in PMC9445421.
Read-outs that look alike come from different tables or passages of the source.

Tests used:
TrkB (Homo sapiens) [1] = target: TrkB (Homo sapiens) (UniProt Q16620)
TrkB (Homo sapiens) [2] = target: TrkB (Homo sapiens) (UniProt Q16620); remark: listed apart in the source

Sequence of UniProt Q16620 (Q16620 32-430): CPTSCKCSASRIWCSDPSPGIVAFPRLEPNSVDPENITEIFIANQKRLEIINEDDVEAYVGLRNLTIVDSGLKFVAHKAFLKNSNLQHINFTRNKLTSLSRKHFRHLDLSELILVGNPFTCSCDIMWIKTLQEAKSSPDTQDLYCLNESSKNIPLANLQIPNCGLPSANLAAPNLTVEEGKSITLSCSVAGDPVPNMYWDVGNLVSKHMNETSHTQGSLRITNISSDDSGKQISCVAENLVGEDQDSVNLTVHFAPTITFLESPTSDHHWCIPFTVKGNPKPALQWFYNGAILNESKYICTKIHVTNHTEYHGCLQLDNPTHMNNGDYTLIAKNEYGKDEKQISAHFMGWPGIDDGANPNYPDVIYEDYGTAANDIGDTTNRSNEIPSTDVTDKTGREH

| Kd (TrkB (Homo sapiens) [1]) [pM] | Kd (TrkB (Homo sapiens) [2]) [pM] | Substance |
| --- | --- | --- |
| 790 |  | BDNF (from UniProt P23560) |
|  | 260 | NT4 (from UniProt P34130) |
